# B1: Lbh TBE T3 (dsDNA)
# DNA 1: GCTTTGAAGA
# DNA 2: TCTTCAAAGC
# B2: Lbh TBE T1 (dsDNA)
# DNA 1: CCTTTGAATC
# DNA 2: GATTCAAAGG
# B3: Lbh TBE T2 (dsDNA)
# DNA 1: TCTTTGATAT
# DNA 2: ATATCAAAGA
# B4: Lbh TBE T4 (dsDNA)
# DNA 1: ACTTTGTACT
# DNA 2: AGTACAAAGT
# Tests used:
# [1] = biological target: T1, TCF4 (TCF7L2) DNA-binding domain (UniProt Q9NQB0 Q9NQB0:265-496); test: EMSA; high affinity; anti-His supershift assay; conditions: tags: His (pET28A), expressed in E. coli; label: 32P 5' end
# Method: (§1) Double-stranded DNA oligonucleotides (30 mers) containing the genomic TBE sites T1-T4 with flanking sequences were 5′ end-labeled with ³²P and 5000 cpm/μl of labeled probe was incubated with 1 μg of recombinant His-TCF4 protein in a total volume of 15 μl binding buffer. For competition and supershift experiments, His-TCF4 was pre-incubated with unlabelled DNA oligonucleotides at 400-fold excess or with 1-5 μg of anti-6× His tag antibody (Abcam) for 10 minutes prior to addition of labeled probe. Samples were separated on 5% non-denaturing polyacrylamide gels for 1 h at 400V. Protein-DNA complexes were detected by phosphoimaging on a Storm 840 Scanner (Molecular Dynamics).
# [2] = biological target: T1, TCF4 (TCF7L2) DNA-binding domain; test: EMSA; high affinity; 1 ug protein in 15 ul; conditions: tags: His (pET28A), expressed in E. coli; label: 32P 5' end
# Method: as §1
# To elucidate the molecular pathways acting upstream of Lbh, murine Lbh genomic sequences were screened for potential transcription factor binding sites. This in silico search identified four conserved putative TCF/LEF-binding elements (TBEs) in the Lbh gene locus. Two TBEs with the consensus motif 5′-CTTTG(A/T)(A/T)-3′ were located within an enhancer region (E1)-6245 (T1) and −6195 (T2) base pairs (bp) upstream of the Lbh transcriptional start site (FIG. 1A). In addition, two consensus TBEs were found in an enhancer (E2) contained within the first intron of the Lbh gene at positions +1558 (T3) and +2145 (T4) by (FIG. 1A). To directly assay for TCF binding to these sites, electrophoretic mobility shift analysis (EMSA) was performed. Recombinant TCF4 protein bound with high affinity to all Lbh-specific TBEs (T1-T4), but not to an unspecific oligonucleotide (FIG. 1B). TCF4 binding to these sites was efficiently competed by addition of 400-fold excess of unlabeled wild-type (+) oligonucleotide as well as increasing amounts of an antibody against recombinant TCF4 protein, but not by addition of 400-fold excess of mutant (m) oligonucleotide (FIGS. 1B, C). Subsequently, cell-based reporter assays were performed to test whether the Lbh genespecific TBE sites (T1-T4) were functionally responsive to overexpression of β-catenin, which is the Wnt-inducible component of the TCF/β-catenin transcriptional complex. […]
# T1 sequence (Q9NQB0 265-496, one chain of several): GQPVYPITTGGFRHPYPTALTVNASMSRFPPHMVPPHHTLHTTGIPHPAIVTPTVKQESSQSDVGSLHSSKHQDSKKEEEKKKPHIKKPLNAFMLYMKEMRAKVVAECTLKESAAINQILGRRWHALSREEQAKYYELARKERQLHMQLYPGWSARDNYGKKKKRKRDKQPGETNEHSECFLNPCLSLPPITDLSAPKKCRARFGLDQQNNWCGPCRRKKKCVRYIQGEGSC
Binder,binding result [1],binding result [2]
B1,binds,–
B2,–,binds
B3,–,binds
B4,–,binds

# From patent publication US20110039788, “COMPOSITIONS, METHODS AND KITS FOR DETECTING AND TREATING CANCER” (University of Miami, published 2011)
